A protein production outcome set (Wang et al. 2014)

Assay: label from the status in PepcDB records
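Also: failed if final PepcDB status was selected cloned or expressed and not failed if soluble or beyond.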

Sequence | protein production
MWVQTKANEDAAPMSERFTLVLLTHEAKALAQRALRYYSSFACSILVLDSSEKADESLARQFPKVDYRHVPQFSRQDQQGKLTYGVGLVDTPYLAIASDTDFLIADGISAALAFLDAHPDYAVCHGYGLMYSARVLETSYYLRDRKGPEDFAAANGRERIMSFMGHYLSPFNAVTRTDVLRQWYSQLPPAVSTEWLDIGYAFFLLATAKARILPVPFIVREANREALERTARIQALLSSKDAGSLAQHQQFAEFLATLPHNCEGPDAQQMKQLALDSFAALAECLESGRSLKGVMIFRSTWSEVGKDPVRAFGSEQFVEMPFYNQPMFDLLTQIEFLVHAMPAGRLQLNELEGVLLKQEELLRVHSNDTARTLRSRLWEAMALNLFNFTVVKRLAESMRDTDEVEVFRELQEWAARLKALPATDSSALFANTQSGQLFSWLEGRGPKPGQFKSIAHLLGRRAGGPQFQILLLDLDADMIKLQATFDSLMANHCKAFKLVVLTTGDLPAMTTAQDTVHFVKVSQGNYIERLNQLVAQSTAHWVLLMEAGDQLTASGLLRASLELLGAEGIRAVAMDEVQRQADGTLRHVFRPGVNLDLLQSAPNLMARHWLLHREVLLQAGGFNREFARAVELDLVLRLIEDGGLAGLAHLAEPLLICQAAPAGENAEERQVLSRHLANRGYRAQVSSAQPGTYQIDYQHAERPLVSIILPSQDNFAELQRCLVSVLQRTRYQRYEVLIAENHSQNAELDSWLASLERQGERIRVLRSGQRVSTSALHNAACAEAKGEYLLLLSADAEVVNANWIDSLLNQVQRPEIGIVGARLVNERGMTTQAGLILGLNGQLGAAFAGEAKDAPGYMNSLWVEKNYSAVSGVCLMIAKALFEAVGGLDEEHFDQAFADVDLCLKVADAGYLTVLTPQAQVMHPGTLAQDPQALAALKDKWAARFAQDTAYNQNLALTGKGFALGTASRVDWQQLLSN | failed
MHTDVNALFAALWQDYIKMTPSAAKIHQLLGHGAPIINDHIALRTFNIAKVNLSVLAKHFTSIGYVDSGDYKFEQKKLIAKHFEHPDPKQPKVFISELLVEEFSPEVQKSIHGLIDQVDIAATTADNFIYSGRHWDVDKATYQALLAESEYAAWVAALGYRANHFTVSINDLPEFERIEDVNQALKQAGFVLNSSGGEVKGSPEVLLEQSSTMADKVVVNFTDGDVEIPSCFYEFARRYPMANGQLYTGFVAASADKIFESTNAMM | not failed
MTVLKGDNLEILKTIESSSIDLIYMDPPFFTQKTQKLSNNKNIMYSFEDTWTSIEDYKEFLSVRLEECKRVLKNSGSIFVHCDKIANHHIRLILDNIFGVDMFQSEIIWNYKRWSNSKKGLLNNHQNIYFYSKSKDFKFNTIFTEYSSTTNIDQILVERKRDGNSKTIYKVDNNGNYILAKEKNGVPLSDVWNIPFLNPKAKERVGYPTQKPILLLEQIIKIATDKNDIVLDPFCGSGTTLVASKILNRNYMGIDLSEEAINITQQRLENVIKTSSNLLNKGIE | failed
MPAKDVQICPIAVDTTVFRSRTWDRLKFEIEYGLQRGTTANSYLISADKIALFDPPGESFTDNFVGTLIQRLDLNSLDYVILGHVNANRAHTLKLLLSLAPQATIICSNPAAQNLEKLLADAEVNNPIQVMKGNDHLDLGRGHELTFIPTPSPRYPGQLCTYDPRTEILFTDKLFGAHVCGDQVFDEGWTIYQEDRRYYFDCLLAPAAAQVSAALNKLEAYPAQTYAPSHGPLVRYGLRELTRNYQQWLSEQQAQALEHHHHHH | failed
KRIQYSVITILVLLIAVILIYMFSPLSKIAHVNINGNNHVSTSKINKVLGVKNDSRMYTFSKKNAINDLEEDPLIKSVEIHKQLPNTLNVDITENEIIALVKYKGKYLPLLENGKLLKGSNDVKINDAPVMDGFKGTKEDDMIKALSEMTPEVRRYIAEVTYAPSKNKQSRIELFTTDGLQVIGDISTISKKMKYYPQMSQSLSRDSSGKLKTRGYIDLSVGA | failed
MSSPSLSPHYQKMLDDLDGQVLQLDRQVFRRLARLGYQPQVIFDVGASNSGWSYYIKQVVTEADFYLFEPLVDHVPDYQGLMEETLRVYPSFHLYKYALGDRDGTITVNVFDDPASSTTLPMTEGGPSINAVQVPLLTLDSALVKLGLPQPQVIKIDTQGNELSILRGAAQTLAKVDVLFLECWLYRGYGPKTPLLTEIAHWLLPFNFRLWDVSEPYRGPQGELTTLDCIFINTAAGLVPNWYY | failed
MHALPGIRTLFLGMPSSTRSPETAVPRILTSRTDVTERSEHNALMFGSPKERWDFYRREIQYDTSILANRTDAYLAAQSFLVIAFASSMSNLNPEWGGLFTLLVPPFLALLCILTTLNAWPGIRAAYDIIDQWYFKQVQLLLAYDESPLFCESESTHKSYRKSLPFSLRAP | failed
SLGSLPPAAMESMESLRLKDKNEPVQNLPIQKSIDDVDSKLKGIGKPRKFSKFSLYKQLHRHHLHDADSISSIDSTSSYFNHYRSHHNLIHGLKPHFKLFHPSS | failed
MSQSQLLQKLASRLPLGVCVVDEHYQIIYWNEFFTDRLPTAKSDTQENNLLTLFPEAAKFLQKKINSVFVLNNASFSYWEHRPHVFDFSSSRPITGEETAMYQNIEFFPLDIEDHQVKTVCLIVQDVTELASYYQAQKCLSEQLEQEHTALSLLNKKLEAAQNQLLQSEKMVAIGQLAAGVAHEINNPIGFVNSNLQSLQDYNNKLLKLLNFYQKLTHKIGSVPYFTLEQDMLKRYQFEFICSDLPDLIRESIEGLDRVAVIVKSLKSFSHVDSSEWQYANVIEGIENTLKIAANQIKYKAVVLRNFQDNLPELYCQPMQLNQVFLNLLVNAAQAIEERGEISIDVSASDAEFIIVIRDTGSGIAASDLRKIFEPFYTTKLVGTGTGLGLSLSYSIVQKHKGEIKVSSVLGEGTAFTVILPILSPEDVA | failed
MSDPVSYTRKDSIAVISMDDGKVNALGPAMQQALNAAIDNADRDDVGALVITGNGRVFSGGFDLKILTSGEVQPAIDMLRGGFELAYRLLSYPKPVVMACTGHAIAMGAFLLSCGDHRVAAHAYNIQANEVAIGMTIPYAALEIMKLRLTRSAYQQATGLAKTFFGETALAAGFIDEIALPEVVVSRAEEAAREFAGLNQHAHAATKLRSRADALTAIRAGIDGIAAEFGL | not failed
MTFKRSLFFLLLLLSVATARAQIDVDRVITIGRNALYFNDYVVSIGYFNQVVGLRPWMAEPYFYRGIAKISLEDYTGAEADASACLQRNALIPKAYLLRGVARQNLGKIDSAIQDYRRGLELMPNDEGMLVNLTGVLTDSKRYAEAREGVAELLKFYPKSKQAHIALSAIELGEQDTVAAIRELNEVLRMDSLFAPAYSQMAMLHLKSKRNAEAMAALDKAIELEPSELSNYINRGVIRYQSNDLRGAMDDYSHVVRQKPNDKLARFNRALLRSYLGDVNNAIEDFDVVIRLEPENYHALYNRAILLTQINENRKAITDFDKVLGHYPDFVVGYYARSQAKKALGDTRGAERDYWRAFDIEKAAQSKTKKTKKSSSSTSTKETREDSDETIEKFNLLVVSEKSSEKRTRYSSRIRGRIQDNDVEVQPSPLFVLSYYEQSSSEEVPRVYYSEAIARFNDKKVLPKRLKPINREVALSQEQVAYHEQDITEISERTAGNADLCFRRALDYMLIQNLEQAIVDFDQAVELNKQFALAYFGRAIARAKLVEARQGASFIHQEAETVNAMTKALITTPRTNAMGVPAAAESPERKPAISDVDGELVMRDLNRTIELDPNFAYAYYNRAVLLARRGDTDAALSDYDRAIKAYPEFADAYFNRGLLLLSRGKAKEGIADLSRAGEYGLYKAYNIIKRMSTKS | failed
MLIRPFLQYILGAVLLAYVLYPLQIRLETYVSPMLAALSLVTLAVTGFVAPVVVVLASIMESADRILREFGTDPVQLDILESRIKGLTGVEVDIAGELVSSGRDIGTIIVERSTQAFSTITFHLIGIALALFLIYYLLKDGDDLVDWLHRTVPLPVDVQRDFYAEIDDVMLGVLFGHVFVAIVQGIVAGVGLAATGVPNAMFWTAVMVVLAMVPLIGTIPVWGGAVIYLYATDEPLLAVGLFLYSVIIVGLTDDYLRPFAVDRYAKLNPAVILLGILGGAYAFGVMGLLFGPVVLGALKAALRVGLDTWSQIDDGNIG | failed
MSLHVTADAPGAAQGGYSVVTFRVPTESETAATTAMTVTLPNVRSARTEPMPGWTARVDRNDKSEAVSVTWTADPGNPGVQPGQFQRFVVSIGPLPSAETVSFPAEQTYSDGRVVAWNQPPAADGSEPEHPAPTLTLATAPGDTEGHHHHHH | not failed
DKDNTDEPKETAKALGKLASESKKEILLESAYLIFDDNQLKGWQALINTGVEIKALTNSMASNDLTTNHSGYAGRRQDMLEHGIQLYELKPETELCEESTKDVSKCAPILPYGLHAKSAVFDDKIASIGSFNFNLRSTYLNTESILIIENQKIAEQLTQDIEHAMDEENSWHLKLQEGDVRWYSGDKSWESEPETGRWERFQSGFLQLLPIE | failed
MSLDGMPAKQQHNNTGESVELHFHYPIKGKQEPKNSHLVVLIEPKIEINKVIPESYQKEFEKSLFLQLSSFLERKGYSVSQFKDASEIPQDIKEKALLVLRMDGNVAILEDIVEESDALSEEKVIDMSSGYLNLNFVEPKSEDIIHSFGIDVSKIKAVIERVELRRTNSGGFVPKTFVHRIKETDHDQAIRKIMNQAYHKVMVHITKELSKKHMEHYEKVSSEMKKRKEGHHHHHH | not failed
MESVAFIQWCLEHLNYWTITLLMTIESSFIPFPSEVIIPPAAYKAAVNDELNIYLVVLFATIGADIGALINYYLAKWLGRPIIYKFANSRIGHMCLIDEAKVQHAESYFDKHGALSTFIGRLIPAVRQLISIPAGLARMKMHTFLLYTTIGAGLWNTILAVIGYYLSTVPGIESEEQLIAKVTEYSHEIGYCFIAIGIFIVGFLVYKGMKKK | failed
MSLSGTDIHTSDYYFLFEEKFRGSRELVKARLRRYIPYFKGCRRVLDIGCGRGEFLELCKEEGIESIGVDINEDMIKFCEGKFNVVKSDAIEYLKSLPDKYLDGVMISHFVEHLDPERLFELLSLCYSKMKYSSYIVIESPNPTSLYSLINFYIDPTHKKPVHPETLKFILEYLGFRDVKIEFFEECEELTKLAKIDSNTVSEEVIRVINENIEKLNRILFGPQDYAIIAKKEGHHHHHH | not failed
MDSENAVKTTYGEFNGKKPFAVMLLGTDTGALDRTEKRGNTDTIIVVVVNPKKKNYTMISIPRDTMADMVGDDSNDVQKINAAYSIGGAKMAMKTVSNLLNIPVKYYALVNMGGLMKLVDYVGGIYVTPPLTFTYSGFPFKKRVRQHLNGQAALAYSRMRYDDPQGDYGRQKRQREVITKLVQKLATADSLTNFSKIANNLSSNVKTNLSFQALKSILANYSDCTSSSDSDYLHGYSTYVNDAAYQIAPTSELQRISNKIRKLLGLKTATVSNRETELNTLNETAGFKFGSGETQNYTLEHHHHHH | failed
MKRVFVFQDFKSQKFWSIDVRGTDVIVNYGKLGTDGQTQVKNFSSAGEAEKAAGKLIAEKTKKGYVETLEEVAKEMKVEAKKYALSYDEAEEGVNLMDKILKDKKLPSLKQITIGCWGYEGEDCSDIADGIVENKEKFAHFEGLFWGDIDFEEQEISWIEQVDLSPVLDAMPLLNNLKIKGTNNLSIGKKPRPNLKSLEIISGGLPDSVVEDILGSDLPNLEKLVLYVGVEDYGFDGDMNVFRPLFSKDRFPNLKWLGIVDAEEQNVVVEMFLESDILPQLETMDISAGVLTDEGARLLLDHVDKIKHLKFINMKYNYLSDEMKKELQKSLPMKIDVSDSQEYDDDYSYPMITELEHHHHHH | not failed
MIPPGAQTPCPAGTRGDEATQLRRFVASVPNRISIGAARGAAPLSALLGLLLLGGAWTLRDHPGPGHEAAALCLLAAAALLMCLACLQRNARSAPFLVLGQGRLRARSLSAPLDLLEVADLRLEDGVWFSAIVLELHGKALPAPSTRPLDPFAARAVSECRDGPRVRLLSPGWRLNGRNLSLLEAAEVIDLYLDIARAQARLRQLGEIPPSASSSLPTPRIFP | failed
MLIRKITRKNPSPDVLEEAISVMEGGGIVIYPTDTIYGLGVNALDEDAVRRLFRVKGRSPHKPVSICVSCVDEIPRFSRPSGDAMELMERILPGPYTVVLERNELIPDVITGGSSRVGIRVPDDEICRRIAARFPVTATSANISGKPPSPRLEEIVRDLDAVDLVLDAGDCLDMEPSTVIDLTVNPPRVLRRGKGPLDPVLLRGAGDV | not failed
